From the supplement of paper PMC12042874
± gives the uncertainty stated by the source.

Test: amyloid nucleation score (Sup35N fusion, yeast selection) (log enrichment); library NNK3; higher = more nucleation; inactive = no reads after selection
Method in brief: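 Sup35N was fused to peptides of 20 random codons and expressed in psi-negative yeast, which were induced with 100 μM copper sulfate for 24 hours and then grown on medium lacking adenine and uracil for 7 days at 30°C. Plasmid inserts from input and output were sequenced on Illumina. The nucleation score is the DiMSum log enrichment of output over input reads, centred on the mode score of non-aggregating sequences. Sequences with under 100 input reads were left out, and random libraries had three technical output replicates.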

Row | Substance | amyloid nucleation score
1 | ILIGWMILWAICLPKLVDDG | inactive
2 | ILIYVQML | 0.521 ± 0.22
3 | ILKMFTSGYCRVLWDLVVMV | inactive
4 | ILMRTGFILCATST | inactive
5 | ILPGRHCGGASMHTQTCQ | inactive
6 | ILQCGS | inactive
7 | ILSVYDFNWFWKAKRDLYIS | inactive
8 | ILTYINEMSHLPWV | inactive
9 | ILVFILYHCCIIHLGLNLAK | inactive
10 | ILVKIRNRCLEVE | -0.32 ± 1.1
11 | ILVTLMVYIPHEYISVINLL | inactive
12 | ILVWNLYLT | 2.54 ± 0.053
13 | ILYVLCIFLCGAAIFSLTVL | inactive
14 | IMEEFVTIFDYLQMAMFTRR | inactive
15 | IMFSVRRLKSILSRVAWYNT | inactive
16 | IMGYGWDCTSDGLCVTCFYS | inactive
17 | IMHIYYTYSIPLCDRRGRSY | 0.856 ± 0.26
18 | IMSNTLIHYLHRMLSSALCY | inactive
19 | IMVKVW | inactive
20 | INHFLFYANNRYRRHILVGC | inactive
21 | INICLLLKQRHEWMCCKNCM | 2.85 ± 0.074
22 | INLFICMCEKGYPHDSWVCC | 2.58 ± 0.083
23 | INNTAPPQTYPR | inactive

Row | Substance | amyloid nucleation score
24 | INRVHLYRLLKW | inactive
25 | INSEWIQSSAMFHPIMGRFR | -0.188 ± 1.5
26 | INWGWLPCTRTSTIGSRGRS | inactive
27 | IPRYVWNVPRWYVYQFVCGA | 0.27 ± 0.54
28 | IPTSLCGGAQLGRTRVLFLW | inactive
29 | IQCYNLSLPAGGEKLVRKRV | inactive
30 | IQLICEAIAGFLYNVIFVVL | inactive
31 | IQTSNTHVVLVFFGRILRIC | inactive
32 | IQWFRQCSFRCSNHYSSAFK | 1.44 ± 0.14
33 | IRAEGQKIYDLPSFCVLIPR | inactive
34 | IRCMRGTTRHVSGLKRVERN | inactive
35 | IRESFINGVYMVVSEFKCFT | inactive
36 | IRFAAMFFALLLRRDESSYE | inactive
37 | IRFYQKCVLSACVTSTRIMV | inactive
38 | IRIKVRLHVSIYFNIFR | inactive
39 | IRPSLLMSLQNNDMMADLEV | -0.538 ± 0.55
40 | IRRLQINRAKHAILLLHYNW | inactive
41 | IRRWPWYIMCYVLLQSFLSL | inactive
42 | IRSDG | inactive
43 | IRSIEPYPMHTTSW | -0.428 ± 1.1
44 | IRSLLLILVRSAVPSALSVN | inactive
45 | IRSTGLINFQYWKMKTFLII | inactive
46 | IRSVL | inactive

Row | Substance | amyloid nucleation score
47 | IRSVVIRVSFYFTWF | inactive
48 | IRTNYRRGKEAGVSGADSCS | inactive
49 | IRTQYQEREASILYM | inactive
50 | IRVLVCIFWKTCPPNYVCRI | inactive
51 | IRYALTINYSNTVL | 0.457 ± 0.24
52 | ISCLDGCFS | inactive
53 | ISESKLMLTRWDGVFVTIWD | inactive
54 | ISFYKGYLKFNL | inactive
55 | ISGLSNMAYFLVNAWKLM | inactive
56 | ISIFRRTGFAWFWENV | inactive
57 | ISIFSIRNMVYNLQVRLVLE | inactive
58 | ISILEVKMWLLWTELERTIT | inactive
59 | ISKAVSWCASCRSTQV | inactive
60 | ISNLRSVVLWNSRLQRNRGW | inactive
61 | ISRAVRILVVFDEVWMCSDG | inactive
62 | ISRGALYLGMTATMRVQSGF | inactive
63 | ISRSVIIDSQRGLCCQTWDW | inactive
64 | ISSIYREYLLKHGMFRKRRK | inactive
65 | ISTKDTLM | inactive
66 | ISVFIRTCMWKFVVVPRGYW | inactive
67 | ISVVGILLGLSSFPVYSVSW | inactive
68 | ISYSAMVNCPDEIWVRYSSW | inactive
69 | ITALDWY | inactive

Row | Substance | amyloid nucleation score
70 | ITAVVVSDMYH | inactive
71 | ITGPTSVYE | inactive
72 | ITRTYNYLYTCINTFRQPSV | 0.045 ± 0.45
73 | ITRWHGSLHSDYGIGICFSI | inactive
74 | ITRWLIVLAVMYYSILSLSV | inactive
75 | IVANGCRWQVRVPWGLTSKW | inactive
76 | IVCRGYSSKWYSVSEYKDNV | 0.016 ± 0.37
77 | IVCRISTTCQWCRINVSGGS | 1.12 ± 0.1
78 | IVDASGQRAMGSDFIHVLHR | inactive
79 | IVFFYAEIGYSPSQCRRRVA | inactive
80 | IVFRLANKPRRANRC | inactive
81 | IVGDRSLRSDEFSCC | inactive
82 | IVGLSHDAINTYLWVVVNAP | inactive
83 | IVIRTSSDTNVRAAVQLRMN | inactive
84 | IVKKHVDFQQTVN | inactive
85 | IVKRFHYYMSVRKLMSKFGL | inactive
86 | IVLCMVFCWSRPWEVIIFKV | inactive
87 | IVLIKDYYSIRFDSEGIVDI | inactive
88 | IVLIKSILDANEEGT | inactive
89 | IVMRPSIGMILYSRSPFVYS | inactive
90 | IVMVIAAGWFN | 0.633 ± 0.2
91 | IVRIVK | inactive
92 | IVVFYAFEVFVGEGGKTRVP | inactive

Row | Substance | amyloid nucleation score
93 | IVWEGSSPLVLIKHGICKQR | inactive
94 | IVYGKHAWWIRLGSIHVFYY | inactive
95 | IVYPFSGLMPDGAFRKEFDA | inactive
96 | IVYRVSVFSWLVMDPDDK | inactive
97 | IVYTMCDFWSSMDLVDNLQG | inactive
98 | IVYTSSLSAMCMRGRNGAVR | inactive
99 | IWDGSADKFVDPHRACRLWR | inactive
100 | IWICYWSCRIKAYRLSNFFD | inactive
101 | IWILRKVVLRVVWMRYLGVK | inactive
102 | IWIRAVDLGLDGLPSFFSIS | inactive
103 | IWKAWDNSSMGCPS | -0.032 ± 0.33
104 | IWLRVITLERLEPQM | inactive
105 | IWRGSKDYKSPVRHFSQAN | inactive
106 | IWSLDNARNYSIVRSVWLG | inactive
107 | IYGVSESVYWIVWANIGVLQ | inactive
108 | IYGWWLGTTYM | 0.656 ± 0.21
109 | IYHYIYSASMKLNTHGELMP | inactive
110 | IYIHQDPVFKGCYWLRRGVE | inactive
111 | IYLMISWQWGSGLQPNIRPA | inactive
112 | IYNSAFIGFSRLKVCVYALF | 0.471 ± 0.17
113 | IYPLMKTELGRTMILIDLLE | inactive
114 | IYRLFSARDDIVKDWRR | inactive
115 | IYSVGYRSS | inactive

Row | Substance | amyloid nucleation score
116 | IYWLSTYRCIKSYSMST | inactive
117 | KAPRCGVKAMLKGVMGFRRR | 0.531 ± 0.24
118 | KAREVGIQWRKWSIIAWNNW | 1.45 ± 0.095
119 | KCAEL | inactive
120 | KCCYRMVVDTV | inactive
121 | KCEFN | inactive
122 | KCGFLTSPHMFSLK | inactive
123 | KCGFYRTVFCSRVCVRS | inactive
124 | KCGRSR | inactive
125 | KCVWWCTNWLNVKWVYSTRC | inactive
126 | KCYNKVWELMLAYG | inactive
127 | KDHLHRRYMGRTAVLREIDI | inactive
128 | KDSCCVGSRNAHFECYFEVA | inactive
129 | KEDKPESTDYNVNT | inactive
130 | KEVTSLVLIVFT | 0.58 ± 0.17
131 | KFADQALTHSQYATFLTGLY | inactive
132 | KFCASSCWMNYSVFGMYLSI | inactive
133 | KFCVVSKTLFNFLTFWFEHG | inactive
134 | KFIVVGYLGTIPTHPVGVPY | 0.6 ± 0.25
135 | KFLITETGSEL | inactive
136 | KFMCSNAF | inactive
137 | KFPFSGPSRMTRRVMQRALL | inactive
138 | KFSLCSVACFNK | 2.88 ± 0.052

Row | Substance | amyloid nucleation score
139 | KFSMMYLRYFVWFLRLIMAS | inactive
140 | KFSYNVQLRVAWYVSGGSGT | inactive
141 | KFYDHTLCFVDWRDFSW | inactive
142 | KGFTDWFWCFTPVVEWKSIT | inactive
143 | KGKITCM | inactive
144 | KGRFVLLDTTAQLNI | inactive
145 | KGVGFPVCTSNG | inactive
146 | KGVGHSTLTIIFLLSALRFS | 1.02 ± 0.14
147 | KGVRCANNVLRKQRLENNNF | inactive
148 | KGYGCFTGMYSENARMMVIS | 0.136 ± 0.66
149 | KICGNRPGVSRYLVGLDVMC | inactive
150 | KIHRAGDYWVMSNR | inactive
151 | KIIRMF | inactive
152 | KIMCGGTVSERETRTLHQSG | inactive
153 | KINLLSCLPVLRYYWISSLA | inactive
154 | KINVD | inactive
155 | KIWNCVYVGWNIVVNNIKGL | 2.66 ± 0.076
156 | KKFLAPCSRCWPKMDITRLN | inactive
157 | KKPPHRLTVLMTGIAM | inactive
